Source: EP4631972A1, “SITE-SPECIFIC COUPLED PEGYLATED INTERLEUKIN-2 MUTANT WITH RECEPTOR AFFINITY PREFERENCE AND USE THEREOF” (priority 2022, dated 2024)

Biological target: T1, IL-2αβγ triple receptor (Homo sapiens, UniProt P01589+P14784+P31785)
T1 construct: Uniprot P01589 1Met-551Ile constructed into plasmid pcDNA3.1/zeo; Uniprot P14784 1Met-551Val constructed into plasmid pcDNA3.1(+); Uniprot P31785 1Met-551Thr was constructed into plasmid pcDNA3.1/zeo; expressed in transfected cells; host or cells: 293EC18 cells, transient co-transfection with pCMV/JAK3 and PGL4.52/STAT5RE
T1 sequence (P01589 22-272): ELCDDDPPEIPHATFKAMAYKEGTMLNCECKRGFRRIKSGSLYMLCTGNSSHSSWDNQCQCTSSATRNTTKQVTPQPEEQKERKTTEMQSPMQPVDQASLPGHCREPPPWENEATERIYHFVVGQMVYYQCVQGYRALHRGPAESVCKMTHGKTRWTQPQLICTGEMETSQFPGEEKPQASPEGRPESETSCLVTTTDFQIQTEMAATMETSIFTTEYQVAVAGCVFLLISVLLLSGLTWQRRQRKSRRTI
T1 sequence (P14784 27-551): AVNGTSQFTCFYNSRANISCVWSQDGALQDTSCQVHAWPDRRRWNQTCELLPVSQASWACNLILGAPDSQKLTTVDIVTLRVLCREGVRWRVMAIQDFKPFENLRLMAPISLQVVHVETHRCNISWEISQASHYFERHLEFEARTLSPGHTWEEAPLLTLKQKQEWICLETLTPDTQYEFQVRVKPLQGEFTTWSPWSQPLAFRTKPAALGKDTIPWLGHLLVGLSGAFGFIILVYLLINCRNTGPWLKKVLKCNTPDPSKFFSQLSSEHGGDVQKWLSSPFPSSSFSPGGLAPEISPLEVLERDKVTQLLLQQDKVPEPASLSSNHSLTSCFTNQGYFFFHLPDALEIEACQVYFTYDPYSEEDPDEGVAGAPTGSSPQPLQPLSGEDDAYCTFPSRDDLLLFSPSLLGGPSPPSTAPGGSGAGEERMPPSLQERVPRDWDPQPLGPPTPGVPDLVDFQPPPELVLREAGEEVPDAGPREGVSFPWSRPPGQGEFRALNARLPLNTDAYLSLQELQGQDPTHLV
T1 sequence (P31785 23-369): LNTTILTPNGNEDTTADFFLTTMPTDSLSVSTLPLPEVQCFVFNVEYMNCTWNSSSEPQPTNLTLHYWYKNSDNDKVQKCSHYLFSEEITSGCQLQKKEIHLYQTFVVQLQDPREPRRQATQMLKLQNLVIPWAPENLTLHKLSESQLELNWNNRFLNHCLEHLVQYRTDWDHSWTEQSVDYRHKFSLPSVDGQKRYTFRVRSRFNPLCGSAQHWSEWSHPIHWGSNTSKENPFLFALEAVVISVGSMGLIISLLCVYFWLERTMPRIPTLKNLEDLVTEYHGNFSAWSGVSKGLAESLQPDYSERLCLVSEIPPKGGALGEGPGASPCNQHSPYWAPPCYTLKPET
Assay: STAT5 reporter gene assay, activation of IL-2αβγ triple receptor in 293EC18/αβγ/JAK3/STAT5 cells
Type: cell-based
Details: Example 3, Table 2 and Figure 3
Method: Since the binding of IL-2 to the β and γ subunits of its receptor induces STAT5 phosphorylation, which subsequently leads to dimerization and translocation into the nucleus to promote target gene transcription, this example evaluates the ability of the mutant IL-2 polypeptides to induce signaling through the IL-2 receptor by measuring STAT5 phosphorylation.
Adherent 293EC18 cells were cultured to about 90% confluence using conventional methods. After trypsin digestion, the cells were resuspended in cell culture medium to 4×10^5 cells/ml and 50 µl/well were added to two 96-well cell culture plates. After incubation at 37°C for 48 h, the supernatant was aspirated and fresh culture medium was added. […]
Each IL2 mutant was diluted 4-fold in a gradient manner using PBS buffer, with a total of 11 dilutions and a starting concentration of 65.2 nM. […] Bio-Lite Luciferase Assay System reagents that have been mixed and equilibrated to room temperature were added to the cell culture plates to be tested at 100 µl/well, placed on a microplate shaker at 450 rpm to mix for 2 minutes, then allowed to stand at room temperature for 3 minutes, and the chemiluminescence value was detected with an enzyme plate reader.
The logarithm of the final concentration of each IL-2 mutant sample was used as the X-axis, and the chemiluminescence detection results were used as the Y-axis for plotting. Data were analyzed using the four-parameter logistic regression model in GraphPad Prism 9. Table 2 EC50 values for the activation of the IL-2αβγ triple receptor by PEG-IL-2 mutants as determined by a reporter gene assay.
According to the method of Example 3, each polyethylene glycol-modified mutant obtained in this example was assessed for the binding preference to the IL2 receptors by a reporter assay. Table 4 EC50 values for the activation of the IL-2αβγ triple receptor by PEG-IL-2 mutants as determined by a reporter gene assay. […]

activation of the IL-2Rαβγ triple receptor compared with the control IL2-N88R: even stronger activation
Substance: 80k-1PEG-IL2-D84C: IL-2 (C125S) mutant D84C with one 80k PEG-maleimide conjugated to cysteine 84
